Data as given in the DeepSol protein solubility set.

Experiment: soluble on expression in E. coli; label from the status in PepcDB or PDB records
For “MRVVRPEFRPAPGLDTDAMASRQRDIAAVADFADDHGLTPERIGLDEPPGEQAALGGATTSGEAAPVVVGVDQAFRDDEVSVSAAVAIRDGAVIERAAGNAPLDVPYVPGLLAFREGSAVIDALSSLSVEPDLLVVDGSGRIHYRQAGLATHVGVLFDVPAVGVAKSLLCGTPAAALADPLPAGTRVAIEADDSMDAPDGAVVGYALQSRQYPTPETRHINPLYVSPGHRVSAGTAADLVEATCTQYKLPAPTRLADQYAADLT”, the “soluble on expression in E. coli” value was “not soluble”. For “MRWDIFCHVVDNYGDIGICWRLARQLVTEFDISVRMLVDDLGAMQRICPAIDPRLAVQNIRGVEILHWVEPFADLVPADVVIEAFGCELPPRYIAAMAAASPRFSEPEGKTDRIWINLEYLSAEQWVEGCHGLASPHPSLPLIKYFFFPGFTAATGGLLREAELFTLRDASRTDPAGLWRELGITNPAADEATVSLFCYDSAPISDLLEAWAGSISPVRCLLPEGTASASAASWAGISRLAAGDSIQRGNLTLHVIPFMSQENYDHLLWACDCNFVRGEDSFVRAQWAVRPIVWQIYPQQENVHLIKLEAFLDLYCQELIEPAADAVRAFHRSWNNNEQPDWNCFWKYRDVLQQHAMAWAERLAQIPNLASSLVNFCRNR”, the “soluble on expression in E. coli” value was “not soluble”. For “MRWNLDPTHTSVEFAVRHMMIATVRGTMGLKEGYVETDETGKPIRVEARLDAASIHTGVADRDNHLRSPDFLDVANHPEIVFRSEKITPLGEGRYRVEGEVTIRGVTRPLAFEVETHGPAKDPWGNERIAAHFEGKLNRKDFGLTWNMPLETGGLLVGEEVRFSVDTQAVKAKEAVAQ”, the “soluble on expression in E. coli” value was “soluble”. With “MRYGFMKVAAAVPFVKVADCEYNIERIDRMVHEADAKGVEIMTFPELSITGYSCGDLFFQPFLQERANEALCRLVEQTANTTVMVIVGMPLRVEEKLFNSAVVFQQGKILGAIPKTYLPNYREFQEARWFSPAHTLQYSTISIGQHSVPIGRNLIFKCGTVGVGIEICEDMWTPFTPGTRLCLYGAEVIFNLSSSNENAGKHSYLRSLISGLSSQGICAYVYASSGYGESSTDIVFTGKAFIAEAGEIVEEMERFRYEERMIISDIDVSRIQTERLINSSFKAAVTFHTHDEKFNQLPFKLRSRQESLPMTRRVDRNPFMPEDKDRKERSREMINIQVCGLMQRLLHMGAEHAVIGISGGLDSALALIVCAQAFDRLDLPRKNIIAVTMPGFGTSDRTYRNAFALMEAIGVTIKEIDIKEACLRHFEAIGHNPEVQDTTFENTQARERTQILMNLANIYNAPVIGTGDLSELALGWVTYNGDHMSMYAVNAGIAKTTVQILVDHIAHSGWLDEAASAVLLDIVRTPISPELKPVGQLEHHHHHH” the “soluble on expression in E. coli” value was “not soluble”. In the case of “MRYLDAEAIENIATGAAFLGTGGGGDPYIGKMMALSAIEENGPVKLVSPEEIAAEDFFLPAAMMGAPSVAIEKFPKGDEFVRVFEKLGKYLDQETIAGTFPMEAGCVNSMIPIVVAAKLGIPLVDCDGMGRAFPELPMVTFHLNGMSATPMAITDEKGNIGIMETIDNTWTERLARVQTVEMGASALVSIYPATGKQLQDYGIHNIVTLSEEIGKVIRGTYADEQEKRQALVEVTDGFELFQGKILDVEREVKGGFNLGRVKLSGLNSDAGSEAVVHFQNENLIAEKDGQVIAMTPDLICMVDLETLTPVTTESLKYGKRVQVMGLKANAAWRTKKGIETVGPRYFGYEMDYQPLENLVAKEDKLEHHHHHH”, the “soluble on expression in E. coli” value is reported as “soluble”. For “MSALAVALARQSESHADCPLFNDPYAQVFIDAALSRGCQLPSDETSERINGIANYASSRTKWFDEYFIAAGAHGLEQMVIVAAGLDARAWRLPWVAGTTLFEIDHPGVLKFKNEALHEHGESPSVSRYVPVPADLSDGWSERLRDAGFDVSEPTAWAVEGLLPYVADGPHLLFDRIHEISPAGSRLAVEAVGTGVADWLSTQGWQVTMIGAQELMTRYGRCGDHSDTDAGMDTVFVNATRTR”, the “soluble on expression in E. coli” value was “soluble”. For “MSANSKDRNQSNQDAKRQQQNFPKKISEGEADLYLDQYNFTTTAAIVSSVDRKIFVLLRDGRMLFGVLRTFDQYANLILQDCVERIYFSEENKYAEEDRGIFMIRGENVVMLGEVDIDKEDQPLEAMERIPFKEAWLTKQKNDEKRFKEETHKGKKMARHGIVYDFHKSDMY”, the “soluble on expression in E. coli” value was “not soluble”. In the case of “MSAPKPFVIGIAGGTASGKTTLAQALARTLGERVALLPMDHYYKDLGHLPLEERLRVNYDHPDAFDLALYLEHAQALLRGLPVEMPVYDFRAYTRSPRRTPVRPAPVVILEGILVLYPKELRDLMDLKVFVDADADERFIRRLKRDVLERGRSLEGVVAQYLEQVKPMHLHFVEPTKRYADVIVPRGGQNPVALEMLAAKALARLARMGAA”, the “soluble on expression in E. coli” value is reported as “soluble”. In the case of “MSAPLYMQIKQFILDKIDSGDWMVGQRIATEIELTEQFGVSRMTVNKAIRDLVNEGKLQRRPRLGTFVCDPSEKSESPLLDIRNIAEEVSDRGRQYSSKVVQQVAIKADDSIAIKLGVMLGTTVFYSEIIHYEDSTPIQLELRWVNSQYAPSYLSQDFTQITPNQYLSNNCPLSAIEHTVEAIVPDNRIKLDLKMQANEPCLLLNRRTWSQDKLVSTALLYHPGNKYKLSSKVLL”, the “soluble on expression in E. coli” value is reported as “not soluble”. In the case of “MSARLDAQIAFLKQADRLKSVERANVLLDLSRPENSAEHSWHLALWALVLSPFAAPDVDVDRAIRMLLLHDLVEIETGDHPIHEVTDWQAVERAERAAARKLFGLLPPDQAADFHTLWTEFDADETADARYAKMLDRCQPMFQVLCADTPRPDHVEVVRENLSSGRAAYLAEAFPEAHAHARALLERHPPVTGGFGDRLEFLAEADRLKTVLRASRLMDDSRFENSAEHSWHIMLYAWVLGEYAAAPVDIDRVLRMLLLHDLVEIDAGDNPIHGNVDHAAQEALEAAAAERLFGLLPPDQGAGLRAIWQEFETAQSADALFGKAVDRVQTPIANLENGGGSWVTYDVSLQQLVARVGTPVSRGAPGLWDWLFPQLSDCFTRLGLRLLEHHHHHH”, the “soluble on expression in E. coli” value is reported as “soluble”. In the case of “MSASYQTIEHDVPQSYRDKILKWNGWGYSDSQFAINKDGHVTFTGDKYEISGKVMPHFRPWFENYLGIDLGFVSPAQKLSDVIIDAPVENEDIIEFLQENKISFSNEARIRLMRGHGHTVHDMINLREGKIPRLPDIVVWPKSEHEIVKIIEGAMSHNCAIIPIGGGTSVTNALDTPETEKRAVISMDMALLDKILWIDRENLTCRAQAGIVGQSLERQLNKKGFTCGHEPDSIEFSTLGGWVSTRASGMKKNKYGNIEDLVVHLNFVCPKGIIQKQCQVPRMSSGPDIHQIILGSEGTLGVVSEVTIKIFPIPEVKRFGSFVFPNFESGVNFFREVAIQRCQPASLRLMDNDQFVMGQALKVASDSWWADLKSSVSKMYITSWKGFKVDEICAATCVYEGNREEVDQHEERLNKLAEQFHGVVGGAENGQYGYRLTFAIAYLRDLGMNHGVLGESFETSVPWDKVLSLCRNVKELMKREAKAQGVTHPVLANCRVTQVYDAGACVYFYFGFNARGLKNGLEVYDRIETAARDEIIACGGSISHHHGVGKIRKQWMLTTNGAVGIALLKAIKSELDPANIFASANLIDIIGSPHCKL”, the “soluble on expression in E. coli” value is reported as “not soluble”. With “MSATGKVSRPIQVFTRANYFFKLIFQFKVRKYNSLTVERIFIRAMCGSDDSFDDFVPDSQEPASSRTRNQDHLDDDEVPCSQRPDAANDTMVEDLDEGDEPAHDESEDIIKILVATDIHCGYGENKANIHMDAVNTFEEVLQIATEQKVDMILLGGDLFHENNPSREVQHRVTQLLRQYCLNGNPIALEFLSDASVNFNQSVFGHVNYYDQNLNVGLPIFTIHGNHDDLSGKGLTALDLLHESGLVNLFGKHSNIQEFIVSPILLRKGETRLALYGIGSQRDDRLVRAFKNNSISFLRPNAGAEDWFNLFVLHQNRPRRAMHRSTGNFLPESLIPQFFDLLIWGHEHECKPDPQYVASSEAVGDGFYILQPGSTVATSLTPEEALQKNAFLIKIKGRKFASKPIPLQTVRPMVCDELLLDKIPPGSRPILKTDRPKHTDGRYIDEIAIEAKINEMITTAKAKRRPRQPELPLIRLKVIYDGDWLNITPANAKRIGLRYENVVANAVDMVFIKKNNKPKEGKLQTENEKNITEMADEMGQVSATNLQTIINDYFINQPLVDQMTVLKPIGIGRALEQYSAIEEGGLATSANRNFDSCLMHQIDVVRKTLKKMPLPPINDPSDLDKFRDLITKDLYDMKKADSERFKNPVADVEMEEDEDDPQYYMPPQSTSRTNYASGSEDEVANSDEEMGSSISRHSKQPTTRGRGRGARGAGASRETTRGRSNKVVSTRQIDSDGFEIINDSPSPPPASRSTRGKARGKSAPSKKRDLSFF” the “soluble on expression in E. coli” value was “not soluble”. In the case of “MSAVVITDRHRRILKVNPAFTSISGFSANEVIGKNTFDVLLSESENIDKRLTTWKQVEELGAWQGELDVLSKNKRKLSLLVRIQSVKSKRKATQYYIISYIDITKR”, the “soluble on expression in E. coli” value is reported as “not soluble”. For “MSAYKQANRLIHEKSPYLLQHAYNPVDWYPWCDEAFEKAKRENKPIFLSIGYSTCHWCHVMESESFEDEEVAEILNKNFVSIKVDREERPDIDSIYMTACQALTGHGGWPLTIIMTPDKKPFFAGTYFPKKDRMGMPGLISILKSVHNTWVNEKDSLAKYSSKVVSVISESIDDDYYYSVDEITEDIFEDAFSQFKYDFDNIYGGFGNAPKFPMPHNLYFLLRYWHKAKEEYALVMVEKTLDSMYSGGIYDHIGFGFCRYSTDEKWLVPHFEKMLYDNALLAIAYLETYQATKNKKYADIAKEIFTYVLRDMTSPEGGFYSAEDADSEGEEGKFYIWSPTEIKEVLGESDGEKFCKYYNITEEGNFEGLNIPNLINSTIPDEDKEFVELCRKKLFDHREKRVHPHKDDKILTAWNGLMIAALAIGGRVLGIEKYTLAAEKASEFIFSKLVRPDGRLLARYRDGEAAFLAYLDDYAFLIWALIELYETTYKPMYLKKAMELTNDMIKYFWDNKKGGLFIYGSDSEQLITRPKEIYDGAIPSGNSVAALNFLRLSRLTGQQELEEKAHQMFALFGSKIDSMPQGYAFFLTAMLFSKSKSNEVVLVGSNEKDTQNMLSILSEDFRPFTTSILYSEEHKDLKELIPFIDNYTTIENKPTAYVCENFVCHEPITDGALLREKLNR”, the “soluble on expression in E. coli” value was “soluble”. With “MSAYKTVVVGTDGSDSSMRAVDRAAQIAGADAKLIIASAYLPQHEDARAADILKDESYKVTGTAPIYEILHDAKERAHNAGAKNVEERPIVGAPVDALVNLADEEKADLLVVGNVGLSTIAGRLLGSVPANVSRRAKVDVLIVHTT” the “soluble on expression in E. coli” value was “not soluble”. With “MSCCKECGHTLENVEVEAYEKRQVFDIPPVNLIVTEHKSQIKTCPHCGRINKAVFPESVKYPVQYGPNILASAIYCKNHHFIPYERISEFFEDIMGIKICPATIIRAEKECFQNLECFENIIREKLMTSYVVHFDETGMKIEGKRHWLHVASNDKYTCYLPHSKRGAEAIDAMGILPEFKGVAVHDGWKPYNVYDCDHAL” the “soluble on expression in E. coli” value was “not soluble”. In the case of “MSCRFYQHKFPEVEDVVMVNVRSIQEMGAYVSLLEYNNIEGMIHLSELSRRRIRSINKLIRIGRNECVKVIRVDKEKGYIDLSKRRVSPEEAIKCEDKFTKSKTVYSILRHVAEVLEYTKDEQLESLFQRTAWVFDDKYKRPGYGAYDAFKHAVSDPSILDSLDLNEDEREVLINNINRRLTPQAVKIRADIEVACYGYEGIDAVKEALRAGLNCSTENMPIKINLIAPPRYVMTTTTLERTEGLSVLSQAMAVIKEKIEEKRGVFNVQMEPKVVTDTDETELARQMERLERENAEVDGDLEHHHHHH”, the “soluble on expression in E. coli” value is reported as “soluble”. With “MSDANPVFADYFKSWYGTYKIPGKSRTTVVRYETIYKKLNAYYGKAKLAKVTRKSYQIFMNEYGKKHAKDTVYKTNGSIRSCVRDGVADGIIQKDFTQKINLTWNLEHHHHHH” the “soluble on expression in E. coli” value was “not soluble”. For “MSDEEEEDVNFKPGTEISSTKANYTVVRLLGEGGFGAVYLVQDNKSKKQSAMKVERKIEKRKHSKLKMEIAILKLVGSGKHFTQIVDRGKKDKEGFFFLVMELVGKSLADLKADRPDKVFSFATGLGVSCQCLEAVEELHKTGFIHRDLKPQNYACGLDEKRHNIYILDFGIARKYLNTKNELKTPRETVGFKGTVRFAPIACHRNTEMGPKDDCESWFYLLLDLIVPSGLPWRKLSDKHEVLKEKEECRKDKRSSLFAGLRQTDYLSKVLDYIDGRAYQDRVDYQFIYKNLAEACKVCNLDIDSPYDWELQKPEKTSKEPTSSKMP”, the “soluble on expression in E. coli” value was “not soluble”.
